Test results as given in the supplement of paper PMC9170038.

These sequences were tested on MS2 coat protein (assay: apparent KD of MS2 coat protein, switch OFF state (with FMN for OFF switches, without FMN for ON switches); designed switch direction (-1 OFF switch, 1 ON switch): -1; higher = weaker reporter binding). Conditions: FMN input: 0 or 200 uM; Eterna round: R93 (includes R88 designs).
Procedure, shortened: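 Apparent KD per design is the median of normalised cluster binding-curve fits. Designed RNA switches transcribed on-chip from Illumina sequencing clusters were titrated with SNAP-549-labelled MS2 coat protein in twofold steps from 0.7 or 1.5 nM to 3 µM, with 0.8–1.5 h down to 10–20 min per step. Buffer: 100 mM Tris-HCl pH 7.5, 80 mM KCl, 4 mM MgCl2, without or with constant ligand.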

Sequence | apparent KD of MS2 coat protein [nM]
AAAAAGGCAGGAUAUACAUGAGGAUCACCCAUGUUUUAAAAAAAAAAAAAAAAAAAAAGUAGAAGGGCCAAAAA [Ex 3.1] | 39.7
AGCUAGGUAGGAUAUACGUAAAUGUCGAAAGACGUAUUGGGACAUGAGGAUCACCCAUGUAGAAGGAUCUAGCA [it's a mod mod mod world 3] | 178
AAAUGACUAGGAUAUACAUGAGGAUCACCCAUGUGUAUAAAUAAAUACACAAAAGAAAGUAGAAGGAGUCAAAA [Ex 3 May 14] | 88.2
UAGAACCUAGGAUAUACUUGGGUCACUAAUUUACUGAUAUAACAUGAGGAUCACCCAUGUAGAAGGAGGAGUAA [JR_Exc002_Sub203] | 26.7
AAAACGGUAGGAUAUACGAUUUGGAACUAGACCGAGGAACCACAUGAGGAUCACCCAUGUAGAAGGGCCAAAAA [EX2 Malc#17] | 10.7
AAAUAGCAAGGAUAUACAUGAGGAUCACCCAUGUAAGGAUGAUACGUAAUAGAAGAAAGUAGAAGGUGCAAAUA [Ex 3 Tesla 6] | 148
AAGAACUCAGGAUAUACAAAAUAAAAGAAAAGAAAGAAAGAACAUGAGGAUCACCCAUGUAGAAGGGAGAAGAA [Sobekkare Sobekneferu] | 32.4
AAGAAUGCAGGAUAUACAAGAAAGAAAGAAAAGAAAAGAAAACAUGAGGAUCACCCAUGUAGAAGGGCAUAGAA [EteRNA is fun!] | 25
GGUUGUGGAGGAUAUACAUGAGGAUCACCCAUGUGAGAGAAAAAAGUGAGAAAGAAAAGUAGAAGGUCGUGACG [salish99-ex3-69] | 34
AAAAAGCGAGGAUAUACAAAAGAGCGAAAGCUCAAAAGGAAACAUGAGGAUCACCCAUGUAGAAGGCGCAAGAA [John Whine] | 20.1
CUCAUGUGAGGAUAUCAGUAGUAAAAAAAUAAAAUUACUACUGAGAAGGCACAUGAGGAUCACCCAUGUGUCUU [EX4 331: Super Stable 31] | 27.2
AAUAAACAUGAGGAUCACCCAUGUGAGGAUAUACAGAUUAUAAGAAAAAAAAAAAAAAGUAGAAGGCACAUAUA [Default title] | 45.9
AAAGGAUCAGGAUAUGUGUGGGAAAAGUGUGUCCAAAAAAAACAUGAGGAUCACCCAUGUAGAAGGGAUCCAAA [Mod 6 of Normal (20/19) by Nando, Round 1] | 265
AAGAAGUGAGGAUAUGCUGACAAUAUGAAGACUUGAGGUAUGCAGAAGGCACAUGAGGAUCACCCAUGUAAGAA [JR_Exclusion4_Sub4] | 23.6
AGGAAGUGAGGAUAUGCUGCUCGUCACUUGCGUGAUGAGUAGCAGAAGGCACAUGAGGAUCACCCAUGUAAAAA [Mat - Exaclusion 4 - Eli mod - D21] | 48.9
GUGUACAGAGGAUAUACAUAAGCUAGGAAACUAGCAAGAUCACAUGAGGAUCACCCAUGUAGAAGGCUGUACAC [Ex2: 739] | 327
CUCAUGUCAGGAUAUCAGUAGUAAAAAAAAAAAAUUACUACUGAGAAGGGACAUGAGGAUCACCCAUGUCCAUU [EX4 304: Super Stable 4] | 36.9
CACGUACAUGAGGAUCACCCAUGUUAGGAUAUGCCGGGUAAGAGAAAACUAAAAAUCAGCAGAAGGGACGAAAC [Bilbo Confounded 16 - Jieux - Exclusion 1] | 32.3
AACGUACAUGAGGAUCACCCAUGUUAGGAUAUGCCGGGUUAGAGCCAACUAAAAAACCGUAGAAGGGACGAAAA [Bilbo Confounded 11 - Jieux - Exclusion 1] | 30.2
AAGAAGGUAGGAUAUACAUGAGGAUCACCCAUGUAAAAGAAAGAAGGGAAAGAGAAAAGUAGAAGGACCAAGAA [Rudamon] | 55.3
AACAAGUCAGGAUAUUCGAAAAGUAAAUAAGUAAAACAAAAGAAGAAGGGACAUGAGGAUCACCCAUGUAAAUA [JR_Exc004_Sub016] | 27.9
CGAAUGUAAGGAUAUAGCCACAUUACGAAUAAGUAGUGUGGCUAGAAGGUACAUGAGGAUCACCCAUGUAUGGG [Exclusion 4.5 (AU closing FMN)] | 51.7

Sequence | apparent KD of MS2 coat protein [nM]
AACAGUACAGGAUAUACAUGAGGAUCACCCAUGUGAAAAUAAAGUGGCGUACCACGAAGUAGAAGGGUACUGGA [Ruby 58] | 72.5
AGUAUGCGAGGAUAUACAUGAGGAUCACCCAUGUGAGAGAUAAGUGUGAGAAAGACAAGUAGAAGGCGCGUACA [JL Lego Mod 27] | 331
CUCAAGUUAGGAUAUCGAAGAAAAGAAGAGAAAGAAAAGAACGAGAAGGAACAUGAGGAUCACCCAUGUAAGAA [EteRNA is fun!] | 21.7
AAAAAGUGAGGAUAUGUCAAAAGUCACAAAAGUGACAAAAGACAGAAGGCACAUGAGGAUCACCCAUGUGGGAA [Mod of Eli - Late G + early G segment 1] | 121
AGUUUGUCAGGAUAUGCGUGAAGAAUAAAACAAAUAACAACGCAGAAGGGACAUGAGGAUCACCCAUGUAAACA [May 54] | 58.1
AAAACACAUGAGGAUCACCCAUGUGAGGAUAUGCUAUGGAAAAUAAAAAUAAAACAUAGCAGAAGGCACAAAAA [Denovo 12] | 32.3
AAGGUUGGAGGAUAUACAUAGAUACAGAUACAUGUAGACGUACAUGAGGAUCACCCAUGUAGAAGGCCAAUAUA [Mat - Same state - Mayanna Mod - D146] | 88.6
UGUGAACAUGAGGAUCACCCAUGUGAGGAUAUACGAGCGUGAGAAAGAUAAAACGAGCGUAGAAGGCACAAGAA [JR_Exclusion1_Sub5] | 57.5
AAGAAGUGAGGAUAUCGAAGACUGUCGAAAAGACAGUCGAACGAGAAGGCACAUGAGGAUCACCCAUGUGAGAG [Mat - Exaclusion 4 - Eli mod - D66] | 46.2
GAAGAACAUGAGGAUCACCCAUGUCAGGAUAUGCGGAAGGGAAUAAUAACUUCCGGAAGCAGAAGGGACAAGAA [Ex 1 May 49] | 60
AAGAACCUAGGAUAUACUUGGGUAACUAAUAAACUGAUAUAACAUGAGGAUCACCCAUGUAGAAGGAGGAGAAA [JR_Exc002_Sub204] | 62.4
AAAAAGGUAGGAUAUACGAAAAAAAAGGGUAAAAAAUAAAAACAUGAGGAUCACCCAUGUAGAAGGACCAAAAA [Mat - Exclusion 2 - Tesla mod - D41] | 36.7
UUAGAACAUGAGGAUCACCCAUGUGAGGAUAUGCAAUACUAGCGACAAGAUCAUUAUAGCAGAAGGCACGUAGU [JR_EXc001_Sub806] | 40
AAUAAGUCAGGAUAUGCGAAUAGAAGAUAAGAUACCCAAAAGCAGAAGGGACAUGAGGAUCACCCAUGUAAAUA [JR_Exc004_Sub010] | 25.6
AACAGUACAGGAUAUACAUGAGGAUCACCCAUGUGAAAAUUAAGUGGAGAACCACAAGGUAGAAGGGUACUGGA [Mat - Exclusion 3 - Eli mod - D62] | 127
AAGAAACAUGAGGAUCACCCAUGUCAGGAUAUCCAAGAAAGAAAGAAAGAAAGAAGAAGGAGAAGGGACAAAGG [Lucius Antonius Pedo] | 67.3
AAAAAGGGAGGAUAUACAUGAGGAUCACCCAUGUGUCAGACGAAAAAGAGUCUGAAGUGUAGAAGGCCCAAAAA [65%, Moding Exclusion3-cac2, 1] | 40.7
GUGUACAGAGGAUAUAUAUAAGCAUGGAAACAUGCAAGAUCACAUGAGGAUCACCCAUGUAGAAGGCUGUACAC [Ex2: 737] | 73.7
AAAUUGUGAGGAUAUCUGGAUAGGAAAAAGAAAACCUAUCCAGAGAAGGCACAUGAGGAUCACCCAUGUAAAAA [JL cataway mod 5] | 96.8
AAGUAGCUAGGAUAUACAUAGAUACAGAUUCAUGUAGAACUACAUGAGGAUCACCCAUGUAGAAGGAGCUAAUA [AJ 35] | 60.3
AAUGGUGGAGGAUAUACAUGAGGAUCACCCAUGUAAAUCACACAUGUGGUCAAAGCAUGUAGAAGGCCACUAAA [Ex 3May 52] | 84.9
AAGAUGUCAGGAUAUGCUGCUCGUCACGAAAGUGAUGAGUAGCAGAAGGGACAUGAGGAUCACCCAUGUAAAGA [Exclusion 4.1c (Exclusion4-cac2 - mutated U at 5)] | 140
